For the test, the target named is Authentic MERS spike, full-length unstabilized, on the cell surface (MERS-CoV, strain , UniProt K9N5Q8). Description: flow cytometry on cells. The note with it: one partner purified.
Chain of Authentic MERS spike, full-length unstabilized, on the cell surface (K9N5Q8 18-1353): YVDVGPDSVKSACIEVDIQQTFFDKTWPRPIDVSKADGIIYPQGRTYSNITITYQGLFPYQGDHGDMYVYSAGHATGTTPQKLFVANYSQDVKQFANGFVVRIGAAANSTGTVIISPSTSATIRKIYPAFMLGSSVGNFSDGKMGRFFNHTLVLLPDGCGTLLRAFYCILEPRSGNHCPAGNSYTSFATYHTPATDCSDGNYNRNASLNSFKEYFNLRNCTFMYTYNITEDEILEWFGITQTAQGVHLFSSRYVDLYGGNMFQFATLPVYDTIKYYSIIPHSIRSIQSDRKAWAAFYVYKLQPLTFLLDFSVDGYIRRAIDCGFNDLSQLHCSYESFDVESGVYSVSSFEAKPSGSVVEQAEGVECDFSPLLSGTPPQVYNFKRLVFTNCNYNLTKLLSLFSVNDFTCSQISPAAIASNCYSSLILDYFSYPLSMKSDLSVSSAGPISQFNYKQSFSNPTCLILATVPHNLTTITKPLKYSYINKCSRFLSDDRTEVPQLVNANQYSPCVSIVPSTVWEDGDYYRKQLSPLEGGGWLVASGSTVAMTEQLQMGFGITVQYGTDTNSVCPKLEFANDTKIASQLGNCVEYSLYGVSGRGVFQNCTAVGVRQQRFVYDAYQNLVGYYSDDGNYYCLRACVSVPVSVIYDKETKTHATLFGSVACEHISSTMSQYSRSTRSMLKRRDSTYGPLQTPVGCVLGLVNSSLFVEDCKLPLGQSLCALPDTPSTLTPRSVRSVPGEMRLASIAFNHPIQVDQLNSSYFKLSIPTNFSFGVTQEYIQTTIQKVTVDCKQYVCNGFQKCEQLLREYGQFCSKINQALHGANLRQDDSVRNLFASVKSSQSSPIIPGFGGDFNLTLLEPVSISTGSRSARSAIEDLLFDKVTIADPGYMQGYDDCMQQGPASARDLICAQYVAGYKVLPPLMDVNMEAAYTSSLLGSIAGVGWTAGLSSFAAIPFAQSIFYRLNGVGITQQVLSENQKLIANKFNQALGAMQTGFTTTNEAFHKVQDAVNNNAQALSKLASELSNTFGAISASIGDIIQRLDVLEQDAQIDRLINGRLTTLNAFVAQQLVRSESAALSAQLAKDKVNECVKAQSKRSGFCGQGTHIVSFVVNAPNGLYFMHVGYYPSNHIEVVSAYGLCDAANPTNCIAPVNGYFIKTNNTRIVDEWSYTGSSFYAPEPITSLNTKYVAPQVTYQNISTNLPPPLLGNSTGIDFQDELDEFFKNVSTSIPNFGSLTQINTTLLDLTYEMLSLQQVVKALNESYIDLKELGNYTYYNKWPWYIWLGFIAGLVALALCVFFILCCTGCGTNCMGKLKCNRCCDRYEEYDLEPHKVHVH

B1: Antibody RAY53, full-length human IgG1 (antibody, V domains shown)
VH: QVQLVQSGAVVLKPGASVKLSCKASGFNIKNTYIHWLKQAPGQRLEWIGRIGPAIGNTIYAPKFQGKATITTDTSASTAYLELSSLRSEDTAVYYCARYYGSSYYYLDYWGQGTTVTVSS
VL: DIVMTQSPLSVPVTPGEPVSISCRSSKSLLHSNGNTYLYWFLQKPGQSPQLLIARMSTLASGVPDRFSGSGSGTAFTLKISRVEAEDVGVYYCMQYLEYPLTFGAGTKLEIK
B1: the binding result is on record as “binds”.

Values taken from publication PMC10030117 (eLife, 2023).
